From article PMC11430099

System: T1, CadX (single-chain homodimer, two identical CadX copies joined by GGGGSGGGGSGGGGS linker) (Streptococcus suis GZ0565), ORF:24397d24
T1 sequence: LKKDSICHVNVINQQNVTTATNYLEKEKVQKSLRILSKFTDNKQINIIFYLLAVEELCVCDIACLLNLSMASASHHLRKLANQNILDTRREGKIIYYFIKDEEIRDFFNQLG
Test: EMSA

TTTGGATGGCAGGGCTTTTTTATATTTGGTACACTAACTTCTTATCTATATTTTGGTGGAGCTGAAGTTGACATCTACAATGTTTAATGTTAGAATACATTCAAAAATATATTTGAATGAGGTCTTTT (double strand) [cadDX promoter fragment]
binding: binds
